Experimental data: the supplement of paper PMC10567573
± gives the standard deviation.

Experiment: protein stability index of a GFP-peptide fusion (GPS, HEK-293T) (PSI 1-6); higher = more stable
Conditions: c terminus: a fixed tail appended
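Further: 24-mer peptide tiles fused after GFP, lentivirally expressed, FACS-sorted into six equal bins by GFP/DsRed ratio, decoded by Illumina sequencing, PSI is the read-weighted mean bin number.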

Sequence | protein stability index (treatment: DMSO) | protein stability index (treatment: MLN4924 1 uM, 8 h)
EKKDTITNDSLSLKPSWFDFGFAI [MIA2] | 2.46 ± 0.19 | 2.48 ± 0.19
EKNRKDAEDWFFSKTEELNREVAT [KRT17] | 4.5 ± 0.14 | 4.71 ± 0.27
ELACPAERSGHVAVSDGRHMFVWG [KLHDC2] | 2.84 ± 0.15 | 2.92 ± 0.2
ELDIPQSVQQNGSIYIHVYFTKSG [CLPTM1] | 2.3 ± 0.57 | 2.85 ± 0.67
ELEKLAEKNIILEEKIQVLQQQNE [MTUS2] | 4.63 ± 0.32 | 4.53 ± 0.22
ELQLEAANETYENNFDNLDFDLDL [ATF6] | 4.76 ± 0.26 | 5.08 ± 0.11
ENARSGAEAEPEDQDEGEWGLDQE [ZBED1] | 5.62 ± 0.15 | 5.56 ± 0.28
ENFQEGKDMSESQDEVPDEVENQF [TAF7L] | 5.58 ± 0.2 | 5.56 ± 0.24
ENITTVSVIKDHHTRSITSCCFDP [WDR88] | 3.55 ± 0.28 | 3.78 ± 0.16
ENLDNDTETDSLVSAQRERPRRRD [DVL3] | 5.51 ± 0.2 | 5.41 ± 0.29
ENQLVRKQDVLGPSTTPPAHSSSN [SASS6] | 5.19 ± 0.21 | 5.29 ± 0.069
EPGGYDSSSTLMSSELETTSFFDS [DVL3] | 4.96 ± 0.31 | 4.96 ± 0.21
EPSLKATMGLAGRARVKEKFSPEA [ALG2] | 4.6 ± 0.34 | 4.94 ± 0.19
EQLQGFNTRVRELAQAAGFAPQTG [DNAAF3] | 3.66 ± 0.28 | 3.91 ± 0.67
ERGPYRTRKHAHHCHKRRTRSCSS [CLK3] | 4.42 ± 0.24 | 4.51 ± 0.15
ERGSMKTHFNTAQGFRTVLELVIN [OAS1] | 2.13 ± 0.43 | 2.5 ± 0.56
ERGTPGLPGPKGDDGKLGATGPMG [SCARA5] | 4.92 ± 0.34 | 4.95 ± 0.15
ERITILRGNHESRQITQVYGFYDE [PPP2CA] | 2.84 ± 0.13 | 3.1 ± 0.25
ERLQKEEEKRRREEEERLRREEEE [ACBD3] | 5.67 ± 0.26 | 5.59 ± 0.23
ERPPPPPSDDLTLLESSSSYKNLT [MCOLN1] | 5 ± 0.21 | 4.93 ± 0.21
ERQCALRVFKARIYTNRYETNEED [FBXO39] | 3.54 ± 0.36 | 3.61 ± 0.41
ERWLKELRDHADSNIVIMLVGNKS [RAB11A] | 2.32 ± 0.29 | 2.26 ± 0.34
ESFYESTSPECASPQFEGPLSPPP [NEUROD6] | 4.92 ± 0.19 | 4.94 ± 0.22

Sequence | protein stability index (treatment: DMSO) | protein stability index (treatment: MLN4924 1 uM, 8 h)
ESIESYDSCDRLTQSWSSQSSFNS [ETS1] | 3.91 ± 0.34 | 4.1 ± 0.3
ESLPVSLGPESWQQIAMDPEEVKS [BCL2L13] | 5.39 ± 0.21 | 5.27 ± 0.31
ESQLPEEWENNRESLIVFMEQVHR [CPXM2] | 3.79 ± 0.33 | 3.82 ± 0.49
ESRIVEQENAIQTMELRNYFSLYC [SNX8] | 2.62 ± 0.3 | 2.61 ± 0.19
ESSSDSGSSDSEEERATRLAELQE [BRD3] | 5.5 ± 0.25 | 5.51 ± 0.063
ESTFMYLTLDLPTAPLYKDEKEQL [USP39] | 3.4 ± 0.2 | 3.55 ± 0.15
ETFIVPDSFLVALDMDDGTLSFIV [SPSB1] | 2.66 ± 0.33 | 2.58 ± 0.54
ETILNAFKMLDPDGKGKINKEYIK [MYL5] | 2.96 ± 0.31 | 3.17 ± 0.41
EVANFYYEADCLAAAYGGKAAPAA [CEBPB] | 2.91 ± 0.38 | 2.83 ± 0.38
EVEWTEDLALDLGPQSRELTLKVL [C2CD2L] | 3.44 ± 0.19 | 3.6 ± 0.36
EVITAAEFHPHHCNTFVYSSSKGT [PPP2R2B] | 3.28 ± 0.3 | 3.35 ± 0.56
EVLIGAGYSTPADIWSTACMAFEL [SRPK2] | 3.14 ± 1.2 | 2.61 ± 0.88
FAAPSPATTASPAKVDSSGVIDLF [SNAP91] | 2.93 ± 0.38 | 3.25 ± 0.52
FADGVLSGEELHELFHTIDTHNTN [NECAB1] | 3.12 ± 0.38 | 3.68 ± 0.21
FAQALGCVLYACFILGRLCVPVFA [SOAT2] | 3.03 ± 0.6 | 2.64 ± 0.55
FARVKKGADGVMRTMAPEKLLKSM [SNAP91] | 2.7 ± 0.18 | 3.05 ± 0.42
FASDGDSGTCSPLRHSFQKQQREK [ADD1] | 3.98 ± 0.41 | 4.17 ± 0.39
FATQTEELNKQVVSSSEQLQSYQA [KRT33B] | 4.75 ± 0.24 | 4.64 ± 0.17
FCGATIAGLSLLSPSVMRLVHTQE [ALKBH7] | 3.06 ± 0.44 | 2.71 ± 0.96
FDCPSELQHTQELFPQWHLPIKIA [STEAP1] | 2.78 ± 0.33 | 2.79 ± 0.38
FDDFVTNLIEKSASLDNGGCALTT [SOAT1] | 3.66 ± 0.27 | 3.62 ± 0.16
FDMSRYSSSGYSSAEINQDLNIQL [FAM219A] | 3.06 ± 0.27 | 3.12 ± 0.18
FENMSNDDAVRVLREIVHKPGPIT [DVL3] | 3.65 ± 0.15 | 3.7 ± 0.15

Sequence | protein stability index (treatment: DMSO) | protein stability index (treatment: MLN4924 1 uM, 8 h)
FFINEAMELKVGDFGLAARLEPLE [PLK2] | 2.61 ± 0.14 | 2.68 ± 0.18
FFTLDLEHIADALRAIDFGTDEEE [TRIM63] | 3.9 ± 0.63 | 4.27 ± 0.26
FGASAAGGLSPVTNLTVTMDQLQG [CDC25A] | 3.65 ± 0.27 | 3.7 ± 0.46
FGYLGDRYNRKYLMCGGIAFWSLV [SPNS1] | 3.1 ± 0.51 | 2.75 ± 0.71
FHAYYYCFITLTTIGFGDYVALQT [KCNK9] | 3.27 ± 0.29 | 3.34 ± 0.36
FIIGELHPDDRPKLNKPPETLITT [CYB5A] | 2.73 ± 0.35 | 2.91 ± 0.4
FIYDCDPFTRRYYKEKFGITDLPR [EFHC1] | 2.35 ± 0.37 | 2.15 ± 0.26
FKKHDADKVGLITLSDWAAAVESV [PPEF2] |  | 2.64 ± 0.46
FNGELPNGRHKIPESQFPEFSTSL [SRPK2] | 3.51 ± 0.22 | 3.72 ± 0.32
FNYRYFEVEEADGNKQWWFGGGCD [CPOX] | 2.48 ± 0.23 | 2.58 ± 0.28
FPEFCSSPSPPVEVKIEEPVSMEM [INTS3] | 4.65 ± 0.32 | 4.82 ± 0.27
FPKINHGILYDEEKYKPFSQVPTG [CFHR2] | 2.4 ± 0.28 | 3.36 ± 0.34
FQQNHLFWLQNSSPSSDRVSAIIW [PHTF1] | 2.26 ± 0.6 | 2.43 ± 0.49
FQVNKLMKKIKKLENDTISKQLTL [CCDC6] | 2.26 ± 0.12 | 2.38 ± 0.33
FRFAPNHTKELEDKVIELHKSHRG [EPB41L3] | 2.88 ± 0.58 | 3.2 ± 0.68
FRLVEKSCPEGDASECPQATNAKD [PPEF2] | 5.11 ± 0.21 | 5.41 ± 0.28
FSDDEEDLNSKGKKREFRFHPIKE [INTS3] | 3.48 ± 0.68 | 4.04 ± 0.71
FSLEQQLDDEDDDEEDCPNPEEYN [SRPK2] | 5.61 ± 0.27 | 5.71 ± 0.13
FTRPNEKGEYEVAEGIGSTVFRAI [BTBD10] | 3.18 ± 0.42 | 3.46 ± 0.38
FVAFAAKLWSFFIYLLRRQIRTVI [CTDNEP1] | 3.29 ± 0.16 | 3.3 ± 0.31
FVELQGFLAAEQDIREEIRKVVQS [TSN] | 2.21 ± 0.41 | 2.48 ± 0.82
FVVGNCLQIASDSHQYDRIYCGAG [PCMTD1] | 2.45 ± 0.38 | 2.62 ± 1
FYPVMLILFLVIGGMLNFMMHDQR [SOAT2] | 3.34 ± 0.36 | 2.95 ± 0.11

Sequence | protein stability index (treatment: DMSO) | protein stability index (treatment: MLN4924 1 uM, 8 h)
GADYPVDGLPDLGHAQDLMDGLPP [CTNNB1] | 4.95 ± 0.24 | 5.17 ± 0.068
GASSLPTTMNYPLWSQSYEDSSNQ [MAGEA3] | 4.42 ± 0.11 | 4.57 ± 0.15
GCLLDDGLEGLFEDIDTSMYDNEL [SERTAD1] | 4.28 ± 0.48 | 4.32 ± 0.42
GCRLPSISSTTCGRQLEKVPEKRD [SPATS1] | 3.98 ± 0.36 | 3.84 ± 0.22
GDAFGSSASEPQPASQAASSSSAS [SNAP91] | 5.48 ± 0.16 | 5.32 ± 0.31
GDESSLLLNAASTVARPVFTEYQA [RHOBTB3] | 3.57 ± 0.29 | 3.52 ± 0.29
GDKSESPDEANVGKHPKDKTEDEN [TOR1AIP2] | 5.55 ± 0.2 | 5.44 ± 0.46
GDLFNGRYHVIRKLGWGHFSTVWL [SRPK2] | 2.19 ± 0.07 | 2.17 ± 0.81
GDLSGGQVLKKIAQKALDLPSSGE [HMOX1] | 4.77 ± 0.37 | 4.8 ± 0.13
GDNPYMYPEQSKGFHKAGSMLPPV [SPATS1] | 3.37 ± 0.16 | 3.35 ± 0.27
GDRLQFNQLSQAELDELASKAPVL [EFHC1] | 4.25 ± 0.42 | 4.72 ± 0.36
GEQVGRGPGFHAGTSALWRHLRSA [ZBED3] | 3.35 ± 0.13 | 3.27 ± 0.27
GFSPSYEFFAVTRFLVGMMNGGMS [SLC22A15] | 2.54 ± 1.2 | 2.28 ± 0.4
GGAICGGPDHRLRLWRLFQTLDVN [SLC25A25] | 2.33 ± 0.27 | 2.48 ± 0.42
GGANDRWVRSVSFSHDGLHVASLA [WSB1] | 3.08 ± 0.3 | 3.16 ± 0.42
GGDLEEQQHAEGSPEPGTPAAPTP [DNAAF3] | 5.61 ± 0.26 | 5.54 ± 0.31
GGGLLKYSNLLVRDFRPTDQEEIK [TENT5C] | 3.79 ± 0.32 | 3.75 ± 0.6
GGRLENQKPRGLEGGVLRGSKLEK [ZSWIM9] | 4.91 ± 0.68 | 4.9 ± 0.65
GGVGGSSRARSASSPRGMVRVCDL [ANKRD17] | 3.97 ± 0.28 | 3.97 ± 0.36
GHRYPCFFNTLHVGGTIRTCQKFL [POP5] | 2.23 ± 0.48 | 2.03 ± 0.21
GHSQPDGAYSSASSFSRPLGYPYV [DLX1] | 3.35 ± 0.14 | 3.17 ± 0.29
